Patent publication US20180208664A1 (APOGENIX, published 2018)
Changes are numbered by the printed parent chain. Ends that are not written are not given here.

T1: APG293 (human CD95L-T4) (human)
T1 chain: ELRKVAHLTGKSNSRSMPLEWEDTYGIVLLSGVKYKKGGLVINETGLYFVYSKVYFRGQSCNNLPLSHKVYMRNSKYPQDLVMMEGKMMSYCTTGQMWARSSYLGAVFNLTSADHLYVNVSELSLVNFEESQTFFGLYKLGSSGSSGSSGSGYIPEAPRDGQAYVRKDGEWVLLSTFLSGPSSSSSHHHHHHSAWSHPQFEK

T2: epitope-comprising peptide YMRNSKYPQD (also: coupled to BSA)
T2 peptide: YMRNSKYPQD

T3: APG707 (LIGHT-RB69) (human)
T3 construct: Structurally related TNF-superfamily protein with the same trimerisation scaffold as APG296; also called human LIGHT (APG707)
T3 chain: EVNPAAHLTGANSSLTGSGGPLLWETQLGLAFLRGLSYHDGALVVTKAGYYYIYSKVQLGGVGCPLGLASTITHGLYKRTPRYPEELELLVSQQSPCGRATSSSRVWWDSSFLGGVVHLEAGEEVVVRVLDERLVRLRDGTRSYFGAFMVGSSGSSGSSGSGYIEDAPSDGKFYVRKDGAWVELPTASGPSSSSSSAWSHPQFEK

T4: peptide C-YMRNSKY (also: immobilized to BSA or ovalbumin)
T4 construct: Printed as 'C-YMRNSKY'; the leading C is read as an added cysteine
T4 peptide: CYMRNSKY

T5: epitope-comprising peptide YMRNSKYPQD (also: coupled to BSA)
T5 peptide: YMRNSKYPQD

B1: scFv-minibody SEQ ID 37 (scFv)
scFv: QSLEESGGDLVKPGASLTLTCTASGFSFSSGYDMCWVRQAPGKGLEWIACIDTDNDATYYASWAKGRFTISKPSSTTVLLQITSLTAADTATYFCATTHGDYVAFKLWGPGTLVTVSGGGSGGGSGGGSGGGSQVLTQTASSVSAAVGGTVTINCQSSQSVYKNNDLSWYQQKPRQPPKLLIYQASKLASGVPSRFKGSGSGTQFTLTIGDLESDDGATYYCAGGYTASIYAFGGGTEVVGSGSSGQPREPQVYTLPPSREEMTKNQVSLTCLVKGFYPSDIAVEWESQGSPENNYKTTPPVLDSDGSFFLYSKLTVDKSRWQQGNVFSCSVMHEALHNHYTQKSLSLSPGSSSSSSAWSHPQFEK
B2: rabbit monoclonal anti-CD95L antibody clone 119-4 (antibody, V domains shown)
VH: QSLEESGGDLVKPGGTLTLTCTTSGFSFSDHYWMCWVRQAPGKGLEWIACIYTADSDSYYASWAKGRFTISKTSSTTVTLQMTSLTAADTATYFCARNGAYAGGPYGDLWGPGTLVTVSS
VL: DIVMTQTPSSVEAAVGGTVTIKCQASQSIRTSLVWYQQKPGQPPKLLIYKASDLPSGVPSRFKGSGSGTQFTLTISDLECADAATYYCQSYDFRDTINNGHSFGGGTEVVVKG
notes: Rabbit monoclonal IgG from a hybridoma subclone, detected with anti-rabbit IgG; Only VH and VL are tied to the clone by name; also called mAb119-4
B3: scFv-minibody SEQ ID 49 (scFv)
scFv: EVQLVESGGGLVQPGGSLRLSCAASGFSFSDHYWMCWVRQAPGKGLEWVACIYTADSDSYYASWAKGRFTISKDSSKNTLYLQMNSLRAEDTAVYYCARNGAYAGGPYGDLWGQGTLVTVSGGGSGGGSGGGSGGGSDIQMTQSPSSLSASVGDRVTITCKASQSIRTSLVWYQQKPGKAPKLLIYKASDLPSGVPSRFSGSGSGTDFTLTISSLQPEDFATYYCQSYDFRDTINNGHSFGQGTKVEIKGSGSSGQPREPQVYTLPPSREEMTKNQVSLTCLVKGFYPSDIAVEWESQGSPENNYKTTPPVLDSDGSFFLYSKLTVDKSRWQQGNVFSCSVMHEALHNHYTQKSLSLSPGSSSSSSAWSHPQFEK
B4: scFv-minibody SEQ ID 50 (scFv)
scFv: B3 scFv with S63D, W64S, A65V
B5: scFv-minibody SEQ ID 51 (scFv)
scFv: B3 scFv with C36S, A50S, C51A, S63D, W64S, A65V
B6: APG101 (Fc fusion, UniProt P25445 26-173, looked up, not shown: a dimerising Fc or GST)
chain: QVTDINSKGLELRKTVTTVETQNLEGLHHDGQFCHKPCPPGERKARDCTVNGDEPDCVPCQEGKEYTDKAHFSSKCRRCRLCDEGHGLEVEINCTRTQNTKCRCKPNFFCNSTVCEHCDPCTKCEHGIIKECTLTSNTKCKEEGSRSN
B7: scFv-minibody SEQ ID 38 (scFv)
scFv: EVQLVESGGGLVQPGGSLRLSCAASGFSFSSGYDMCWVRQAPGKGLEWVACIDTDNDATYYASWAKGRFTISKDSSKNTLYLQMNSLRAEDTAVYYCARTHGDYVAFKLWGQGTLVTVSGGGSGGGSGGGSGGGSDIQMTQSPSSLSASVGDRVTITCQSSQSVYKNNDLSWYQQKPGKAPKLLIYQASKLASGVPSRFSGSGSGTDFTLTISSLQPEDFATYYCAGGYTASIYAFGQGTKVEIKGSGSSGQPREPQVYTLPPSREEMTKNQVSLTCLVKGFYPSDIAVEWESQGSPENNYKTTPPVLDSDGSFFLYSKLTVDKSRWQQGNVFSCSVMHEALHNHYTQKSLSLSPGSSSSSSAWSHPQFEK
B8: scFv-minibody SEQ ID 39 (scFv)
scFv: B7 scFv with S63D, W64S, A65V
B9: scFv-minibody SEQ ID 40 (scFv)
scFv: B7 scFv with C36S, A50S, C51A, S63D, W64S, A65V
B10: scFv-minibody SEQ ID 48 (scFv)
scFv: QSLEESGGDLVKPGGTLTLTCTTSGFSFSDHYWMCWVRQAPGKGLEWIACIYTADSDSYYASWAKGRFTISKTSSTTVTLQMTSLTAADTATYFCARNGAYAGGPYGDLWGPGTLVTVSGGGSGGGSGGGSGGGSDIVMTQTPSSVEAAVGGTVTIKCQASQSIRTSLVWYQQKPGQPPKLLIYKASDLPSGVPSRFKGSGSGTQFTLTISDLESADAATYYCQSYDFRDTINNGHSFGGGTEVVVKGSGSSGQPREPQVYTLPPSREEMTKNQVSLTCLVKGFYPSDIAVEWESQGSPENNYKTTPPVLDSDGSFFLYSKLTVDKSRWQQGNVFSCSVMHEALHNHYTQKSLSLSPGSSSSSSAWSHPQFEK

Tests used:
APG293 (human CD95L-T4) = target: T1, APG293 (human CD95L-T4); assay: cell-based or functional assay
[1] = target: T2, epitope-comprising peptide YMRNSKYPQD; assay: QCM (Attana A100), peptide-BSA immobilized, antibody as analyte
Description: The A100 allows to investigate molecular interactions in real-time based on the Quartz Crystal Microbalance (QCM) technique. For this purpose, the respective epitope comprising peptide was coupled to BSA and subsequently immobilized to the surface of a carboxyl-activated QCM-chip. […] Binding (kₒₙ) and dissociation (koff) was analyzed in real time, and the respective KD was calculated (see table in FIG. 16).

APG707 (LIGHT-RB69) = target: T3, APG707 (LIGHT-RB69); assay: competition ELISA, APG296 coated, APG707 as soluble competitor
Description: For the competition ELISA, 96-well microtiter plates were coated with 10 μg/ml APG296 (CD95L-RB69). […] Binding of the rabbit monoclonal antibodies was detected by incubation with goat anti rabbit IgG-Peroxidase (Sigma; dilution 1:5000) and subsequent detection of the converted Peroxidase-substrate TMBone at a wavelength of 450 nm in an ELISA reader (FIG. 6).

peptide C-YMRNSKY = target: T4, peptide C-YMRNSKY; assay: peptide ELISA, peptide on BSA or ovalbumin coated
Description: Binding of the rabbit monoclonal antibody was detected by incubation with goat anti rabbit IgG-Peroxidase (Sigma; dilution 1:5000) and subsequent detection of the converted Peroxidase-substrate TMBone at a wavelength of 450 nm in an ELISA reader (FIG. 13).
Binding of the rabbit monoclonal antibody was detected by incubation with goat anti rabbit IgG-Peroxidase (Sigma; dilution 1:5000) and subsequent detection of the converted Peroxidase-substrate TMBone at a wavelength of 450 nm in an ELISA reader (FIG. 14).

[2] = target: T5, epitope-comprising peptide YMRNSKYPQD; assay: QCM; immobilized BSA-coupled peptide

Binder | EC50, Assay 1: antagonism of CD95L-T4-induced apoptosis on Jurkat A3 cells (APG293 (human CD95L-T4)) | EC50, Assay 2: antagonism of CD95L-T4-induced apoptosis on Jurkat A3 cells (APG293 (human CD95L-T4)) | EC50, Assay 5: antagonism of CD95L-T4-induced apoptosis on Jurkat A3 cells (APG293 (human CD95L-T4)) | EC50, Assay 6: antagonism of CD95L-T4-induced apoptosis on Jurkat A3 cells (APG293 (human CD95L-T4)) | EC50, Mean: antagonism of CD95L-T4-induced apoptosis on Jurkat A3 cells (APG293 (human CD95L-T4)) | binding result [1] | binding result (APG707 (LIGHT-RB69)) | binding result (peptide C-YMRNSKY) | Kd [2] | EC50, Assay 3: antagonism of CD95L-T4-induced apoptosis on Jurkat A3 cells (APG293 (human CD95L-T4)) | EC50, Assay 4: antagonism of CD95L-T4-induced apoptosis on Jurkat A3 cells (APG293 (human CD95L-T4))
B1 | 0.124 µg/mL | 0.117 µg/mL | 0.113 µg/mL | 0.118 µg/mL | 0.118 µg/mL | – | – | – | – | – | –
B2 | – | – | – | – | – | binds | no binding (tested: 100 µg/ml) | no binding (tested: 2 µg/ml) | 1.2 nM | – | –
B3 | – | – | 0.117 µg/mL | 0.127 µg/mL | 0.14 µg/mL | – | – | – | – | 0.172 µg/mL | 0.144 µg/mL
B4 | – | – | 0.128 µg/mL | 0.14 µg/mL | 0.143 µg/mL | – | – | – | – | 0.169 µg/mL | 0.136 µg/mL
B5 | – | – | 1.48 µg/mL | 1.74 µg/mL | 1.76 µg/mL | – | – | – | – | 1.55 µg/mL | 2.26 µg/mL
B6 | 0.774 µg/mL | 0.789 µg/mL | – | – | 0.746 µg/mL | – | – | – | – | 0.707 µg/mL | 0.714 µg/mL
B7 | 0.118 µg/mL | 0.114 µg/mL | 0.0957 µg/mL | 0.111 µg/mL | 0.11 µg/mL | – | – | – | – | – | –
B8 | 0.0994 µg/mL | 0.105 µg/mL | 0.0865 µg/mL | 0.0834 µg/mL | 0.093 µg/mL | – | – | – | – | – | –
B9 | 0.532 µg/mL | 0.591 µg/mL | 0.701 µg/mL | 0.571 µg/mL | 0.599 µg/mL | – | – | – | – | – | –
B10 | – | – | 0.0844 µg/mL | 0.0975 µg/mL | 0.097 µg/mL | – | – | – | – | 0.116 µg/mL | 0.0908 µg/mL
